Results published in PMC6538622 (Scientific Reports, 2019).

Target: the molecule itself
Test: SEC-SAXS; 5-10 mg/ml protein in 10 mM DTT, 10 mM MgCl2, 0.5 M NaCl, 20 mM Tris pH 8; KW403-4F size-exclusion column, B21 beamline (Diamond Light Source); molecular mass from I(0)

B1: Escherichia coli RNase E N-terminal catalytic domain (domain or fragment)
chain: not shown
notes: also called EcRNase E NTD; E. coli RNase E NTD
In the case of B1, the “stoichiometry N” value is reported as 4.
